From the supplement of paper PMC10724198
± gives the standard deviation of the averaged measurements.

System: Saccharomyces cerevisiae
Assay: protein stability index of tFT-peptide fusion (C-terminal peptide) (PSI (0-1 scale)); higher = more stable (slower turnover)
Details: genetic background: wild type; temperature: 30 C
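Also: PSI is a weighted mean of sequencing reads over stability bins, variants kept only with over 10 reads, mCherry proximal and sfGFP distal, peptide attached via GGGS linker.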

Row | Sequence | protein stability index
1 | PHGPPAHLRSRP | 0.737 ± 0.015
2 | PHHPPAHPPTPP | 0.683 ± 0.023
3 | PHHPPPPLPCVV | 0.632 ± 0.071
4 | PHHRRVVRPPTA | 0.704 ± 0.013
5 | PHNTPRPELLPP | 0.613 ± 0.11
6 | PHPAPPPNPLVP | 0.739 ± 0.017
7 | PHPCSPAPPWPL | 0.694 ± 0.028
8 | PHPHRPPRSFLL | 0.704 ± 0.1
9 | PHPLPSHPLPPP | 0.738 ± 0.023
10 | PHPLSPRPPPSL | 0.746 ± 0.013
11 | PHPPFLFPPPCP | 0.71 ± 0.051
12 | PHPPLPPLLPPA | 0.741 ± 0.082
13 | PHPPLPPPPYLL | 0.667 ± 0.016
14 | PHPPPSLLPSAP | 0.7612 ± 0.0037
15 | PHPTPSLPHSSP | 0.827 ± 0.043
16 | PHQCLSFPPRFK | 0.744 ± 0.082
17 | PHSASSVSYTLY | 0.701 ± 0.052
18 | PHSPSHTPVYPR | 0.694 ± 0.011
19 | PHSPSPSWFWPR | 0.76 ± 0.058
20 | PHSSFSLAPPIP | 0.696 ± 0.01
21 | PHTLPPLPVSPT | 0.67 ± 0.05
22 | PHVLAALTSYTP | 0.68783 ± 0.00064
23 | PHVSGYTVLIWF | 0.5588 ± 0.0054

Row | Sequence | protein stability index
24 | PICAWGRPRTPM | 0.7639 ± 0.0017
25 | PIDHCFPPIPRR | 0.737 ± 0.035
26 | PILPTSAPSDPR | 0.724 ± 0.12
27 | PIPHHLRVASPA | 0.6162 ± 0.00068
28 | PISPPLPRPSPR | 0.696 ± 0.012
29 | PIVSISLGIGSS | 0.6758 ± 0.001
30 | PKAMRPKLVVFR | 0.682 ± 0.024
31 | PKHQPSLLPNHH | 0.615 ± 0.026
32 | PKKREKKKKKEK | 0.66 ± 0.073
33 | PKSTDVPPVRRE | 0.686 ± 0.088
34 | PKVRQLLLTRVL | 0.547 ± 0.022
35 | PKYYTTTDRLRV | 0.622 ± 0.02
36 | PLAALPLALSLP | 0.6575 ± 0.0055
37 | PLALPLHLPLPP | 0.667 ± 0.034
38 | PLALSPNPLSRT | 0.679 ± 0.045
39 | PLAPPHRPALLM | 0.568 ± 0.034
40 | PLCLLLLNPPTL | 0.682 ± 0.012
41 | PLCVPPRRLFPP | 0.716 ± 0.072
42 | PLFFLPLPPPLF | 0.6881 ± 0.0046
43 | PLFLLLPALSIP | 0.595 ± 0.029
44 | PLFRTPPPRPSP | 0.673 ± 0.14
45 | PLFSFLPPPLPP | 0.697 ± 0.017
46 | PLGPLLSPLSPP | 0.743 ± 0.014

Row | Sequence | protein stability index
47 | PLGPRFLPLVLP | 0.682 ± 0.021
48 | PLGVPPPAPSSP | 0.6943 ± 0.0024
49 | PLHPPPPPPPPT | 0.69 ± 0.034
50 | PLLHPPPRASLL | 0.792 ± 0.13
51 | PLLLPLFSSSPP | 0.777 ± 0.085
52 | PLLLYFLPPLPL | 0.629 ± 0.039
53 | PLLPYPFPPPLS | 0.784 ± 0.04
54 | PLLTFSPLPGLS | 0.696 ± 0.034
55 | PLLTPPPVLHHP | 0.741 ± 0.035
56 | PLLVLSLRLSPP | 0.664 ± 0.013
57 | PLPALRPGAAPH | 0.7457 ± 0.0023
58 | PLPAPPSTPSSP | 0.715 ± 0.034
59 | PLPAPPTPPLPP | 0.763 ± 0.039
60 | PLPARFPPSPPS | 0.743 ± 0.074
61 | PLPFLPPPPCPP | 0.696 ± 0.036
62 | PLPFPFPLCSQS | 0.64 ± 0.1
63 | PLPFPPPPPSPY | 0.655 ± 0.086
64 | PLPLPSTALPPS | 0.632 ± 0.063
65 | PLPPISSFPSLS | 0.703 ± 0.028
66 | PLPPLFLPPPPL | 0.708 ± 0.021
67 | PLPPLLLPPPLP | 0.703 ± 0.046
68 | PLPPPLPQAPPT | 0.695 ± 0.021
69 | PLPPPPAPPLPP | 0.647 ± 0.024

Row | Sequence | protein stability index
70 | PLPPPPLLPFVL | 0.774 ± 0.085
71 | PLPPPPTPPVPV | 0.672 ± 0.015
72 | PLPPRPSPPPPL | 0.705 ± 0.013
73 | PLPPSSSPSSLP | 0.71 ± 0.077
74 | PLPPTAPPHPPP | 0.671 ± 0.096
75 | PLPQVLYPPPPS | 0.6905 ± 0.0045
76 | PLPRLRRPAPPH | 0.667 ± 0.055
77 | PLPRPPPPSCPP | 0.654 ± 0.076
78 | PLPRPPPTATGD | 0.687 ± 0.013
79 | PLPRSPRPSAPP | 0.622 ± 0.034
80 | PLPSAPLLPPPP | 0.686 ± 0.056
81 | PLPVLLLPGHLP | 0.733 ± 0.054
82 | PLPYSPPHPVPP | 0.701 ± 0.029
83 | PLRDHPAPPHRL | 0.665 ± 0.068
84 | PLRESSTRPSLL | 0.684 ± 0.055
85 | PLRLPPAPPFPL | 0.824 ± 0.075
86 | PLRLPPAPPPPP | 0.617 ± 0.015
87 | PLRPAPVLYPAF | 0.654 ± 0.012
88 | PLRPPRPPPPPF | 0.726 ± 0.052
89 | PLRRRPFAPPPP | 0.535 ± 0.034
90 | PLSFHPHLTSSP | 0.671 ± 0.013
91 | PLSLSPLPSPPL | 0.704 ± 0.041
92 | PLSPPAPSPAPR | 0.644 ± 0.0071

Row | Sequence | protein stability index
93 | PLSPPLPPPLSL | 0.681 ± 0.031
94 | PLSPPPPPRPPL | 0.728 ± 0.019
95 | PLSPPPSLPVPL | 0.659 ± 0.051
96 | PLSPRLPRRRLP | 0.681 ± 0.017
97 | PLSSLSLPTPPT | 0.707 ± 0.062
98 | PLSTHNSLPRVK | 0.691 ± 0.061
99 | PLSVSLSLLTPR | 0.74 ± 0.13
100 | PLTNKTHRPPDK | 0.702 ± 0.0091
101 | PLVPSPSPPPAR | 0.727 ± 0.031
102 | PLWRVPPYPPSP | 0.691 ± 0.031
103 | PLWVFFRFSPNL | 0.662 ± 0.01
104 | PMNCIGTRGHQV | 0.65854 ± 0.00043
105 | PMPPPPPACSLD | 0.777 ± 0.11
106 | PNAPSLSPPSLF | 0.624 ± 0.066
107 | PNASPNPHRSNK | 0.708 ± 0.062
108 | PNESFLLPELNH | 0.711 ± 0.0083
109 | PNETQTQRPATR | 0.683 ± 0.025
110 | PNPPHPPPLPPA | 0.595 ± 0.033
111 | PNPRSPRPSPPS | 0.687 ± 0.038
112 | PPAFPPPPSPPP | 0.636 ± 0.091
113 | PPAHPRPPPPFL | 0.762 ± 0.037
114 | PPAPLHLPSLPR | 0.705 ± 0.018
115 | PPAPPHLPPLPR | 0.71574 ± 0.00046

Row | Sequence | protein stability index
116 | PPAPPLPAPPWA | 0.54 ± 0.032
117 | PPAPPPLPPPPP | 0.729 ± 0.0092
118 | PPAPPPPTGLCL | 0.755 ± 0.092
119 | PPAPRPPLFPYP | 0.697 ± 0.043
120 | PPAPRPPSPRPP | 0.693 ± 0.033
121 | PPARIFRSLPTP | 0.711 ± 0.047
122 | PPASLRRLLPPP | 0.654 ± 0.0066
123 | PPASPPLPPPRP | 0.689 ± 0.042
124 | PPATTSATRVRP | 0.698 ± 0.043
125 | PPAVRRPRRGGN | 0.699 ± 0.016
126 | PPCGPPGPPIPP | 0.592 ± 0.026
127 | PPCLPPASRPVL | 0.699 ± 0.0069
128 | PPDPPPYAPPPP | 0.648 ± 0.015
129 | PPDPPWPRSPPA | 0.588 ± 0.019
130 | PPFLPLPPPPLP | 0.731 ± 0.015
131 | PPFLSAFPPHLP | 0.724 ± 0.015
132 | PPFPPPPRPPSS | 0.645 ± 0.036
133 | PPFTRLPPPLSS | 0.741 ± 0.062
134 | PPGPPRPFPSHL | 0.785 ± 0.16
135 | PPHFPLPLPPTP | 0.706 ± 0.024
136 | PPHPARHRPPAS | 0.7321 ± 0.0016
137 | PPHPPRPPSPHP | 0.707 ± 0.051
138 | PPHPSPPPPSHS | 0.693 ± 0.039

Row | Sequence | protein stability index
139 | PPICLCHDPAAH | 0.659 ± 0.013
140 | PPLAPPPPPRPP | 0.6 ± 0.072
141 | PPLASSPPVLAR | 0.514 ± 0.018
142 | PPLCPPLPFLHP | 0.885 ± 0.11
143 | PPLDLPFPSRSI | 0.745 ± 0.0078
144 | PPLFPPPTLPEL | 0.738 ± 0.02
145 | PPLGPRPPSNST | 0.6522 ± 0.0058
146 | PPLKPRTSRPTI | 0.682 ± 0.009
147 | PPLLPLPPPPSP | 0.625 ± 0.067
148 | PPLLPLSQPLPH | 0.683 ± 0.038
149 | PPLLPPAPLFPP | 0.694 ± 0.025
150 | PPLPAPPAPAVQ | 0.6991 ± 0.0027
151 | PPLPFAISPPPA | 0.6624 ± 0.0017
152 | PPLPHPPLLAPP | 0.748 ± 0.15
153 | PPLPLPPPIRPP | 0.6388 ± 0.0037
154 | PPLPNLVYHLST | 0.6195 ± 0.0054
155 | PPLPPHPPPGQQ | 0.697 ± 0.017
156 | PPLPPLPLSLSI | 0.742 ± 0.093
157 | PPLPPLPPLPPP | 0.72 ± 0.08
158 | PPLPPPPPRLPA | 0.636 ± 0.025
159 | PPLPPQLVQDLL | 0.72 ± 0.073
160 | PPLPPRPAPIPP | 0.663 ± 0.033
